Assay results published in the RNAGym collection of RNA variant scans (doi:10.7554/elife.80360).

B1: HDV Ribozyme (parent)
chain: GGCCGGCAUGGUCCCAGCCUCCUCGCUGGCGCCGGCUGGGCAACAUUCCGAGGGGACCGUCCCCUCGGUAAUGGCGAAUGGGACCCA

Variants of: B1
Test: self-cleavage, relative activity (ratio to wild type); higher = more cleavage; co-transcriptional

For GGCCGGCAUGGUCCAAGCCUCCUCGCUGGCGCCGGCUGGGCAACAUUCCGAGGGGACCGUGCCCUCGGUAAUGGCGAAUGGGACCCA [C15A C61G], which self-cleavage is on record?
Its self-cleavage is 0.508.

With GGCCGGCAUGGUCCCAGCCUCCUCGCUAGCGCCGGCUGGGCAACAUUCCGAGGGGACCGUCCCCUCGGUAAUGUCGAAUGGGACCCA [G28A G74U] as the variant, how does the self-cleavage read?
Its self-cleavage is 0.0432.

Which self-cleavage does the source give for GACCGGCAUGGUCCCAGCCUCCUCGCUGGCGCCGGCUGGGCACCAUUCCGAGGGGACCGUCCCCUCGGUAAUGGCGAAUGGGACCCA [G2A A43C] here?
Its self-cleavage is 0.0665.

For GGCCGGCAUGGUCCCAGCCUCCUCGCAGGCGCCGGCUGGGCAACAUUCCGAGGGGACCGUCCCCUCGGUAAUGGCGAAUGGGAGCCA [U27A C84G], which self-cleavage is on record?
The self-cleavage was 0.957.

With GGCCGGCAUGGUCCGAGCCUCCUCGCUGGCGCCGGCUGGGCAACAUUCCGAGGGGACCGUCCCCUCGGUAAUGGCGGAUGGGACCCA [C15G A77G] as the variant, how does the self-cleavage read?
The self-cleavage was 0.332.

With GGCCGGCAUGUUCCCAGCCUCCUCGCUGGCGCCGGCUGGGCAACAUUCCGAGGGGACCGUCCCAUCGGUAAUGGCGAAUGGGACCCA [G11U C64A] as the variant, how does the self-cleavage read?
The self-cleavage was 0.256.

With GCCCGGCAUGGUCCCAGCCUCCUCGCUGGUGCCGGCUGGGCAACAUUCCGAGGGGACCGUCCCCUCGGUAAUGGCGAAUGGGACCCA [G2C C30U] as the variant, how does the self-cleavage read?
The self-cleavage was 0.117.

With GGCCGGCAUGGUCCUAGCCUCCUCGCUGGCGCCGGCUGGGCAACAUUCCGAGGGGACCGUCCCCUCCGUAAUGGCGAAUGGGACCCA [C15U G67C] as the variant, how does the self-cleavage read?
Its self-cleavage is 0.883.

Which self-cleavage does the source give for GGCCGGCAUGGUCCCAGCCUCCUCGCUGGCGCCGGCUGGGCAACAUUCCGAGGCGACCCUCCCCUCGGUAAUGGCGAAUGGGACCCA [G54C G59C] here?
Its self-cleavage is 1.21.

For GGCCGGCAGGGUCCCAACCUCCUCGCUGGCGCCGGCUGGGCAACAUUCCGAGGGGACCGUCCCCUCGGUAAUGGCGAAUGGGACCCA [U9G G17A], which self-cleavage is on record?
Its self-cleavage is 0.225.

With GGCCGGCAUGGUCCUAGCCUCCUCGCUGGCGCCGGCUGGGCAACAUGCCGAGGGGACCGUCCCCUCGGUAAUGGCGAAUGGGACCCA [C15U U47G] as the variant, how does the self-cleavage read?
The self-cleavage was 0.89.

For GGCCGGCAUGGUCCCAGCCUCCUCGCUGGCGCCGGCUGGGCAACAUCCCGAGGGGACCGUCCCCUCGGUAAUGGCGAAUGGGACGCA [U47C C85G], which self-cleavage is on record?
Its self-cleavage is 0.831.

For GGCCGGCAUGGUCCCAGCCUCCACGCUGGCGCCGGCUGGGCAACAUUCCGAGGGGACCGUCCCCUCGGUAAUGGCGAAUGCGACCCA [U23A G81C], which self-cleavage is on record?
Its self-cleavage is 0.306.

With GGCCGGCAUGGUCCCAGCCUCCUCGCUGGCGCCGGCUGGGCAACAUUCCGAAAGGACCGUCCCCUCGGUAAUGGCGAAUGGGACCCA [G52A G53A] as the variant, how does the self-cleavage read?
Its self-cleavage is 0.89.

Which self-cleavage does the source give for GGCCGGCAUGGUCCCAGCCGCCUCGCUGGCGCCGGCUGGGCAACAUUCCGAGGGGACCGUCCCCUCGGUAAUGGCGAAUGGGAGCCA [U20G C84G] here?
The self-cleavage was 0.119.

With GGCCGGCAUGGUGCCAGCCUCCUCGCUGGCGCCGGGUGGGCAACAUUCCGAGGGGACCGUCCCCUCGGUAAUGGCGAAUGGGACCCA [C13G C36G] as the variant, how does the self-cleavage read?
Its self-cleavage is 0.158.

Which self-cleavage does the source give for GGCCGGCAUGGUCCCAUCCUCCUCGCUGGCGCCGGCUGGGCAACAUUCCGAGGGGACCGUCCCCUCGGUAAUGGCGAAUGGGGCCCA [G17U A83G] here?
Its self-cleavage is 0.405.

For GGCCGGCAUGGUCCUAGCCUCCUCGCUGGCGCCGGCUGGGCAACAUUCCGAGGGGACCGUCCCCUCGGUAAUGGCGAAUGGGACCCA [C15U], which self-cleavage is on record?
The self-cleavage was 0.965.

Which self-cleavage does the source give for GGCCGGCGUGGUCCCAGCCUCCUCGCUGGCGCCGGCUGGGCAACAUUCCGAGGGGACCGUCCCCUCGGUAAUGGCGAAUAGGACCCA [A8G G80A] here?
Its self-cleavage is 0.148.

With GGACGGCAUGGUCCCAGCCUCCUCGCUGGCGCCGGCUGGGCAACAUUCCGAGGGGACCGUCCCCUCGGUAAUGGCGAAUGGGGCCCA [C3A A83G] as the variant, how does the self-cleavage read?
Its self-cleavage is 0.434.

Which self-cleavage does the source give for GGCCGGCAUGGUCCCAGCCUCCUCGCUGGCGCCGGCUGGGCAACAUUCCGAGCGGACCGUCCCCUCGGUAAUGGCGAAUGGGACGCA [G53C C85G] here?
The self-cleavage was 1.01.

For GGCCGGCAUGGUCCCAGCCUGCUCGCUGGCGCCGGCUGGGCAACAUUCCGAGGGGACCGUCCCAUCGGUAAUGGCGAAUGGGACCCA [C21G C64A], which self-cleavage is on record?
The self-cleavage was 0.131.

With GGCCGGCAUGGUCCCAGCCUCCUCGCUGGCGGCGGCUGGGCAACAUUCCGAGGGGACCGUCCCCUCGGUAAUGGAGAAUGGGACCCA [C32G C75A] as the variant, how does the self-cleavage read?
The self-cleavage was 0.154.

For GGCCGGCAUGGUCCCAGCCUCCUCGCUGGUGCCGGCUGGGCAACAUUCCGAGGGGACCGUCCCCUAGGUAAUGGCGAAUGGGACCCA [C30U C66A], which self-cleavage is on record?
Its self-cleavage is 0.684.

For GGCCGGCAUGGUCCCCGCCUCCUCGCUGGCGCCGGCUGGGCAACAUUCCGAGGGGACCGUCCCCUCGGUAAUGGCGAAUGUGACCCA [A16C G81U], which self-cleavage is on record?
Its self-cleavage is 0.519.

Which self-cleavage does the source give for GGCCGGCAUGGUCCCAGCCUCCUCGCUGGCGCCCGCUGGGCAACAUUCCGAGGGGACCGUCCCCUCGGUAAUGGCGAAUGAGACCCA [G34C G81A] here?
The self-cleavage was 0.16.

For GGCCGACAUGGUCCCAGCCUCCUCGAUGGCGCCGGCUGGGCAACAUUCCGAGGGGACCGUCCCCUCGGUAAUGGCGAAUGGGACCCA [G6A C26A], which self-cleavage is on record?
Its self-cleavage is 0.888.

With GGCCGGCAUGGUCCCAGCCUCCUCGCUGGCGCCGGCUGGGCAACAUUCCGAGAGGACCGUCCCCUAGGUAAUGGCGAAUGGGACCCA [G53A C66A] as the variant, how does the self-cleavage read?
The self-cleavage was 0.794.

For GGCCGGCAUUGUCCCAGCCUCCUCGCUGGCGCCGGCUGGGCAACAUUCCGAGGGGACCGUCCCCUCGGUUAUGGCGAAUGGGACCCA [G10U A70U], which self-cleavage is on record?
Its self-cleavage is 0.602.

For GGCCGGCAUGGGCCCAGCCUCCUCGCUGGCGCCGGCUGGGCAACAUUCCGAGGGGACCGUCCCCUCGGUGAUGGCGAAUGGGACCCA [U12G A70G], which self-cleavage is on record?
Its self-cleavage is 1.04.

Which self-cleavage does the source give for GGCCGGCAUGGUCCCAGCCUCCUAGCUGGCGCCGGCUGGGCAACAUUCCGAGGGGACCGUCCCCUCGGUAAUGGCGACUGGGACCCA [C24A A78C] here?
Its self-cleavage is 0.133.

For GACCGGCAUGGUCCCAGCCUCCUCGCUGGCGCCGGCUGGGCAAUAUUCCGAGGGGACCGUCCCCUCGGUAAUGGCGAAUGGGACCCA [G2A C44U], which self-cleavage is on record?
Its self-cleavage is 0.0554.
